Measured values as given in article PMC5038981 (DNA repair, 2015).

Biological target: T1, GST-tagged Rad27 (S. cerevisiae, UniProt P26793 1-382)
T1 sequence (looked up): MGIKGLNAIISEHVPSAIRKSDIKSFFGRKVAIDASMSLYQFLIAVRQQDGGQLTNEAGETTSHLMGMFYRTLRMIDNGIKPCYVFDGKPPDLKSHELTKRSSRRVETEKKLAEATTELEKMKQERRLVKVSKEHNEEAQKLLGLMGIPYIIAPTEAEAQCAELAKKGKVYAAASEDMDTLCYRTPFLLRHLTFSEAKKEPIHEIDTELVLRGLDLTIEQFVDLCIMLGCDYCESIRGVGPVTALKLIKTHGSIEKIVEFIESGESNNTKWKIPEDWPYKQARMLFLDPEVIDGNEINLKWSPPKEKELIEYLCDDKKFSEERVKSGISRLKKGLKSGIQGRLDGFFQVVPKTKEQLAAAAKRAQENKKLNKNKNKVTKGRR
Assay: pull-down

binding result: binds
B1: his-tagged Nej1 C-terminal fragment (residues 129-343) (domain or fragment, S. cerevisiae, UniProt Q06148 129-342, looked up)
chain: MFYMILQSLCMLLLKLVNLSTQYHYVQRDILNEKQKCLDFLLISLRDLDGGSKVISQWAPENSKNYESLQQCTDDDIIKKLLHKGKFQHQEFLADSLKTLLSLRNKFQDVSRFEESGELNKKERVRFPAVNHFYNDDFELQADPTNEARPNSRGKIKPKTDFKPKSRESSTSSQLRLENFSESEATPEKTKSSSSLVEEYPQKKRKFGKVRIKN
